Experimental findings from paper PMC12905440 are described below.

Series [1] addresses Ago1 (RISC) (UniProt A1Z9J5). The series can be described thus: RBNS. The note with it: RBNS: 20 mM HEPES-KOH pH 7.9, 100 mM KOAc, 3.5 mM Mg(OAc)2, 0.05% CHAPS, 2 mM DTT, 8% glycerol, BSA, tRNA, 25 C, 2 h, filter binding: 25 mM HEPES-KOH pH 7.9 ….
Series [2] deals with T1, PUM2 (Homo sapiens) (UniProt Q8TB72).
T1 sequence: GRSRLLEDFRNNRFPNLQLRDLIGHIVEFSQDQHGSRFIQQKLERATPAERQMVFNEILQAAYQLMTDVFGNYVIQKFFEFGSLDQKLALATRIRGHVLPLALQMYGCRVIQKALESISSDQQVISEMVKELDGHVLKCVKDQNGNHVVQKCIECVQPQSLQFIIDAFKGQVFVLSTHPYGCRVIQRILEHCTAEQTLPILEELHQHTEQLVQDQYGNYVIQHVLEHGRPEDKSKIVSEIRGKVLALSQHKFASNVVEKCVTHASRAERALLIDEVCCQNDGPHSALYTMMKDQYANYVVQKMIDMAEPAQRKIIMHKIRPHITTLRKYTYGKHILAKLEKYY
The series can be described thus: RBNS. Particulars: re-analysis of published RBNS data (ref 38); RBNS: 20 mM HEPES-KOH pH 7.9, 100 mM KOAc, 3.5 mM Mg(OAc)2, 0.05% CHAPS, 2 mM DTT, 8% glycerol, BSA, tRNA, 25 C, 2 h; filter binding: 25 mM HEPES-KOH pH 7.9 ….

In series [3] the target is Ago1 (RISC) (UniProt A1Z9J5). The series can be described thus: double-filter binding. Particulars: let-7 guide, RBNS: 20 mM HEPES-KOH pH 7.9, 100 mM KOAc, 3.5 mM Mg(OAc)2, 0.05% CHAPS, 2 mM DTT, 8% glycerol, BSA, tRNA, 25 C, 2 h, filter binding: 25 mM HEPES-KOH pH 7.9 ….

pKd: −log10 of the molar value.

Ago1 (RISC), sequence (A1Z9J5 entry or part of it): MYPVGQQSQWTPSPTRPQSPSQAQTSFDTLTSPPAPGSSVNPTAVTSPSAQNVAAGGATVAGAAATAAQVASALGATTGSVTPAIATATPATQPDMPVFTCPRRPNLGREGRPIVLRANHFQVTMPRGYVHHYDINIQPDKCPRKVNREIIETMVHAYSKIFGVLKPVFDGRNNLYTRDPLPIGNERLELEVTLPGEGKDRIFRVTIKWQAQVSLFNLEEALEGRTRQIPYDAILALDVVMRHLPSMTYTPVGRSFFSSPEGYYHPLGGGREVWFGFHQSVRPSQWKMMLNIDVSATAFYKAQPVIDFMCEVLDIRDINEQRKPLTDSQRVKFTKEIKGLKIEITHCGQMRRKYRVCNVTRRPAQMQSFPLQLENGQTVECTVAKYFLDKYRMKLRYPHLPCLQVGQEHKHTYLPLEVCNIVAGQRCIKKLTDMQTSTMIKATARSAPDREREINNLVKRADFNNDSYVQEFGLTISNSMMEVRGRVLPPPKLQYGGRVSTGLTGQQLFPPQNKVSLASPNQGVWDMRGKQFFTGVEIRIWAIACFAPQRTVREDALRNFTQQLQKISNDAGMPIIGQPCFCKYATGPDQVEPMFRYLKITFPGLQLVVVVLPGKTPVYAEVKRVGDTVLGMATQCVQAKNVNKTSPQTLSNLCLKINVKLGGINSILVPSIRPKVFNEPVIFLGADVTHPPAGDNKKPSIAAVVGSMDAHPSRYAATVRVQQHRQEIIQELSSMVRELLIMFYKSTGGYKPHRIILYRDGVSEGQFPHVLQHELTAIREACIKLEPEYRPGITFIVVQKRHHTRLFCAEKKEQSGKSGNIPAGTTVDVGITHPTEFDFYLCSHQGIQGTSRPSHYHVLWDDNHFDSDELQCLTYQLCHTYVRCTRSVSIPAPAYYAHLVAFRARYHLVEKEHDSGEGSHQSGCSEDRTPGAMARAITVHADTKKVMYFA

As to “CUACCUUB / UGAGGUAGUAGGUUGUAUAGU [let-7 / 7mer-m8,w2]”, the pKd (commonly the Kd on a negative log10 scale, so that one unit is a factor of ten) in series [1] (let-7 guide) is 9.56.

With “UCCGUCUB / UGGACGGAGAACUGAUAAGGGC [miR-184 / 7mer-m8,w2]”, the pKd in series [1] (miR-184 guide) is 9.81.

The substance “UGAUCUUB / UGAGAUCAUUUUGAAAGCUGAUU [bantam / 7mer-m8,w2]” gave a pKd in series [1] (bantam guide) of 9.06.

In series [2], UGUAUAUA [PUM consensus site] had a pKd of 9.92.

Substance “let-7 guide / fully complementary target (Fig 1c)” showed a pKd in series [3] of 11.70.

Substance “let-7 guide / seed-matching target (Fig 1c)” showed a pKd in series [3] (5' 32P target) of 11.30.
